This is an account of results in patent US20180022822A1, “NOVEL ANTI-FIBROBLAST ACTIVATION PROTEIN (FAP) BINDING AGENTS AND USES THEREOF” (Mabimmune Diagnostics AG, priority 2016, published 2018).

Experiment [1] concerns the target T1, transmembrane human FAP on FAP expressing HEK293 cells (Homo sapiens, UniProt Q12884).
T1 construct: HEK293 cells were transduced with retrovirus encoding full length human FAP cDNA; host or cells: HEK293 (retroviral transduction, G418 selected)
T1 sequence (Q12884 1-760): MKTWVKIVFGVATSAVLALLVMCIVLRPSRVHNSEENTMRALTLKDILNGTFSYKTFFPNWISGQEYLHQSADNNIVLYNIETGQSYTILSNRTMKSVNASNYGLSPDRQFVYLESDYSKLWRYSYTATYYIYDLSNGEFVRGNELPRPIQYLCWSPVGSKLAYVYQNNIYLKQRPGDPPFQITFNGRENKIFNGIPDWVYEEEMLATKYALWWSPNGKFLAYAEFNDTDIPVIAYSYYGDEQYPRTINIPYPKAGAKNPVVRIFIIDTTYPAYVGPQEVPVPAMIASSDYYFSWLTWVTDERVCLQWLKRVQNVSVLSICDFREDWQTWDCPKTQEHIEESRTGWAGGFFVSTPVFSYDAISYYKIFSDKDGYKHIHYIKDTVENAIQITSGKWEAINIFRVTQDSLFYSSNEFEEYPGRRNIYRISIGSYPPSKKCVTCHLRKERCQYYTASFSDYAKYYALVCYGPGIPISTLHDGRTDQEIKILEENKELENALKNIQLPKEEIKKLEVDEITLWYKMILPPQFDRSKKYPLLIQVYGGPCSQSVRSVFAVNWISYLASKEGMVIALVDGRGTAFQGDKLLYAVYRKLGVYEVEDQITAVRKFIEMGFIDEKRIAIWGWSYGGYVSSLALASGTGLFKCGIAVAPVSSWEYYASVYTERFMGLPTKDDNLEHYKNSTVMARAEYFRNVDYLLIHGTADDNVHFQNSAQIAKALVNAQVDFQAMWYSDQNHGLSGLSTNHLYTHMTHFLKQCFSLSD
In words: flow cytometry of Cy5 labelled antibodies on FAP-HEK293 cells in pH adjusted PBS. In kind it is cell-based. The conditions noted are these: pH 7.4 to 6.2; 0.1-100 nM Cy5 labelled antibody. The procedure:
To evaluate the binding of NI-206.82C2, NI-206.59B4, NI-206.27E8, NI-206.12G4, NI-206.18H2 and NI-206.6D3 to transmembrane human FAP, an FAP expressing HEK293 cell line was received from the National Institutes of Health, Bethesda, Md. The generation of this FAP expressing HEK293 cells is described in: J. Exp. Med. 2013 Vol. 210 No. 6 1125-1135. HEK293 cells were transduced with retrovirus encoding full length human FAP cDNA. Cloning was performed using Fast Cloning Pack and FastDigest restriction enzymes (both from Fermentas). Transient retroviral supernatants were generated by transfecting 293GP cells with the FAP plasmid using Lipofectamine 2000 (Invitrogen). Retroviral supernatants were collected at 48 h after transfection and centrifuged onto Retronectin-coated (10 μg/ml; Takara), non-tissue culture-treated 6-well plates at 2,000 G for 2 h at 32° C. These retroviral supernatants where then used to transduce HEK293 cells overnight. Transduced FAP-HEK293 cells were selected with 1 mg/ml G418 (CellGro).
500′000 FAP-HEK293 cells were incubated for 1 hr at 4° C. either with Cy5 labelled NI-206.82C2, NI-206.59B4, NI-206.27E8, NI-206.12G4, NI-206.18H2 or NI-206.6D3 or with Cy5 labelled 43A11 at four different antibody concentrations (0.1, 1, 10, and 100 nM) in seven different pH-adjusted PBS buffers (pH 7.4, 6.8, 6.6, 6.5, 6.4, 6.3 and 6.2). PBS buffers were adjusted to using MES monohydrate (Sigma Aldrich). Following incubation, cells were washed 3 times with 200 uL in matched pH-adjusted PBS, spun at 400G for 4 min, and resuspended in 200 μL of pH adjusted buffer.
To analyze antibody binding, fluorescent activated flow cytometry was performed using a BD Fortesa device for forward scatter, side scatter, and the mean fluorescent intensity (MFI) of the Cy5 channel was recorded using a […] laser excitation and 600/20 filter. Viable cells were gated by forward and side scatter, and singlets/doublet exclusion, and the MFI for Cy5 was quantified using FlowJo software Version 10.1.

The test system of experiment [2] is directly coated FAP peptides mixture (cFAP). In words: direct ELISA on coated mixture of FAP peptides. In kind it is binding, human. Particulars: peptides 378-392, 622-636, 721-736. The procedure:
(§1) ELISA assays were performed with varying antibody concentrations to validate the binding of the exemplary antibodies of the present invention to FAP and to be able to determine their half maximal effective concentration (EC50). For the exemplary recombinant human NI-206-18H2, NI-206-20A8, NI-206-6D3, ‘NI-206-14C5, NI-206-34C11, NI-206.82C2, NI-206.59B4, NI-206.22F7, NI-206.27E8, NI-206.12G4 and NI-206.17A6 antibodies, 96-well microplates (Costar, Corning, USA) were coated with FAP, with a mixture of the 3 peptides or with BSA (Sigma-Aldrich, Buchs, Switzerland) diluted to a concentration of 5 μg/ml in carbonate ELISA coating buffer (15 mM Na2CO3, 35 mM NaHCO3, pH 9.4) for the direct ELISA. For the capture ELISA, the microplates were coated with mouse anti-His monoclonal antibody (Clontech) diluted to a concentration of 3 μg/ml in PBS, the plates were then blocked, FAP or BSA were diluted to a concentration of 2 μg/ml in PBS and added to the plates to be captured. The binding efficiency of the antibodies was then tested.
(§2) The EC50 values were estimated by a non-linear regression using GraphPad Prism (San Diego, USA) software. […] The binding of NI-206.12G4 towards sFAP was not tested.

Experiment [3] has as its target T2, directly coated FAP (FAP) (Homo sapiens, UniProt Q12884).
T2 sequence (Q12884 1-760): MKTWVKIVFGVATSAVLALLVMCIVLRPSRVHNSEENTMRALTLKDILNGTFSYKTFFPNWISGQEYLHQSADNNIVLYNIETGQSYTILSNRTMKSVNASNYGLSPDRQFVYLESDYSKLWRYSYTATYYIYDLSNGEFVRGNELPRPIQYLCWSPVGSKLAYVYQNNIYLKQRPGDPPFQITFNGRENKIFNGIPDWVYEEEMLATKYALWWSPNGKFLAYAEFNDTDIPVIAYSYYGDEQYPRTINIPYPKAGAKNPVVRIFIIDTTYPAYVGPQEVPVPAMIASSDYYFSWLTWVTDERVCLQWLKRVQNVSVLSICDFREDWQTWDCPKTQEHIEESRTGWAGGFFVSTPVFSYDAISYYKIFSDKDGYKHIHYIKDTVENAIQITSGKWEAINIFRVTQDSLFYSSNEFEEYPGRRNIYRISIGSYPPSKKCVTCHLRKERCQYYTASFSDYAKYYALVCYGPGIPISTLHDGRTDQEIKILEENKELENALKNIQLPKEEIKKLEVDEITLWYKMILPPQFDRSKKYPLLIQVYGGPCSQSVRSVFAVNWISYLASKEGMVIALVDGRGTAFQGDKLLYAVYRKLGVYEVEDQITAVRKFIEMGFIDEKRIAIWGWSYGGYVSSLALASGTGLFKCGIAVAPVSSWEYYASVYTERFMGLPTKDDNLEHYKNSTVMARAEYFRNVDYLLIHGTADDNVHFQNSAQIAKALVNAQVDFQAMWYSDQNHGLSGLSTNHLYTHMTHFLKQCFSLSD
In words: direct ELISA on directly coated FAP. In kind it is binding. As for the experimental part:
as §1, §2
For orientation: An ELISA detects its analyte on a solid surface through an enzyme-linked reagent.

Another experiment concerns the target T3, captured FAP (sFAP) (Homo sapiens, UniProt Q12884).
T3 sequence (Q12884 1-760): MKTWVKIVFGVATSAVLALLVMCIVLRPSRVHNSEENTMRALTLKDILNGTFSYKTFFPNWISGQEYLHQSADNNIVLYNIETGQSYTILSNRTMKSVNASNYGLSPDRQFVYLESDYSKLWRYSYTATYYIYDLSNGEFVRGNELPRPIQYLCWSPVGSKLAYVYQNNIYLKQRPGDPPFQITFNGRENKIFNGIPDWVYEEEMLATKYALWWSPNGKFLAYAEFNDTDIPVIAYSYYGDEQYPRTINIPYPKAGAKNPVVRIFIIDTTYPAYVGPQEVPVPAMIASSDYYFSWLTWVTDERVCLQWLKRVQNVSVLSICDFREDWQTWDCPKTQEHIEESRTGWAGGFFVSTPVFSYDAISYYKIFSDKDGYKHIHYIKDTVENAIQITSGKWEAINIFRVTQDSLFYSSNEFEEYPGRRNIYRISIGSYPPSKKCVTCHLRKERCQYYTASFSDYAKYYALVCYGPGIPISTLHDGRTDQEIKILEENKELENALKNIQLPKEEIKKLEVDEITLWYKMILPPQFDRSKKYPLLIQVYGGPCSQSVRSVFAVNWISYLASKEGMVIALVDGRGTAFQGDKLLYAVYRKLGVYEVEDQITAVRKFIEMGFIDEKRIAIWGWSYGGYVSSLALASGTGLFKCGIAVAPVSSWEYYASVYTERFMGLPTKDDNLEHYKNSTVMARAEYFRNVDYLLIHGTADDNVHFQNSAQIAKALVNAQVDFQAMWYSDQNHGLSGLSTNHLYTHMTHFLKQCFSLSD
Kind of experiment: capture ELISA, FAP captured via his-tag with coated anti-His antibody. In kind it is binding. The procedure: as §1, §2

In a further experiment the target is T4, BSA (Bos taurus, UniProt P02769).
T4 construct: purchased Sigma-Aldrich
T4 sequence (P02769 25-607): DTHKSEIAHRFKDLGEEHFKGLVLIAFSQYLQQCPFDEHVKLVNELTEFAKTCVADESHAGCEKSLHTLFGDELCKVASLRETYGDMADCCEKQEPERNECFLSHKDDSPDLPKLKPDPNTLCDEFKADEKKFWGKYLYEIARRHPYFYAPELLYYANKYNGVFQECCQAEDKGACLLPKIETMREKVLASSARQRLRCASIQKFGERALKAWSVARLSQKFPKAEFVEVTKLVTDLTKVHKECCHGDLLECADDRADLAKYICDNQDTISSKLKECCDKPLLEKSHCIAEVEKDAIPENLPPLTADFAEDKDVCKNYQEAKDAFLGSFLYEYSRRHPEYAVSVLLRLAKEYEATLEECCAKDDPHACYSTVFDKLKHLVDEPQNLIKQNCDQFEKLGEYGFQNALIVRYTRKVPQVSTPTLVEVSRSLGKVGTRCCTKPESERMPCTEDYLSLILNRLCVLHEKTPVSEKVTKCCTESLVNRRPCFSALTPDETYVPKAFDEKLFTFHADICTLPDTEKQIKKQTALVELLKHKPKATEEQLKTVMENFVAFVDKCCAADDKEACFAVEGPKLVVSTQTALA
In words: ELISA control binding to BSA. Details: species or system bovine. The procedure:
as §1

[4] abbreviates: ELISA, varying antibody concentrations.

B1: NI-206.27E8: human-derived recombinant anti-FAP antibody; VH SEQ ID NO: 16, VL SEQ ID NO: 18 (antibody, listed as Homo sapiens, V domains shown)
VH: EVQLVESGGGLVEPGGSLRLSCAASGFTFSDAWMNWVRQAPGKGLEWVGRIKTKSDGGTTDYAAPVRGRFSISRDDSKNTLFLEMNSLKTEDTAIYYCFITVIVVSSESPLDHWGQGTLVTVSS
VL: SYELTQPPSVSVSPGQTARITCSGDELPKQYAYWYQQKPGQAPVLVIYKDRQRPSGIPERFSGSSSGTTVTLTISGVQAEDEADYYCQSAYSINTYVIFGGGTKLTVL
For the molecule B1, the “paratope-specific avidity (ΔMFI) under acidic conditions vs. at pH 7.4” value in experiment [1] is on record as “increased”. Further, the “EC50 to the directly coated FAP peptides mixture (cFAP)” value (“EC50 … (cFAP)” for short) in experiment [2] is given as “did not show any binding”.

B2: NI-206.12G4: human-derived recombinant anti-FAP antibody; VH SEQ ID NO: 20, VL SEQ ID NO: 22 (antibody, listed as Homo sapiens, V domains shown)
VH: EVQLVESGGGLVKPGGSLRLSCAASGFTFSDYYMSWIRQAPGKGLEWISYISSGSSYTNYADSVKGRFTISRDNAKKSVYLEVNGLTVEDTAVYYCARVRYGDREMATIGGFDFWGQGTLVTVSS
VL: SYELTQPPSVSVSPGQTARITCSGDALPKQYAYWYQQSPGQAPVLVIYKDSERPSGIPERFSGSSSGTTVTLTISGVQAEDEADYYCQSADSGGTSRIFGGGTKLTVL
As to B2, the “paratope-specific avidity (ΔMFI) under acidic conditions vs. at pH 7.4” value in experiment [1] is reported as “decreases”. The “EC50 … (cFAP)” value in experiment [2] was “did not show any binding”.

B3: NI-206.17A6: human-derived recombinant anti-FAP antibody; VH SEQ ID NO: 24, VK SEQ ID NO: 26 (antibody, listed as Homo sapiens, V domains shown)
VH: QVQLQESGPGLVRSTETLSLTCLVSGDSINSHYWSWLRQSPGRGLEWIGYIYYTGPTNYNPSLKSRVSISLGTSKDQFSLKLSSVTAADTARYYCARNKVFWRGSDFYYYMDVWGKGTTVTVSS
VL: EIVLTQSPGTLSLSLGERATLSCRASQSLANNYLAWYQQKPGQAPRLLMYDASTRATGIPDRFSGSGSGTDFTLTISRLEPEDFAVYYCQQFVTSHHMYIFGQGTKVEIK
As for B3, the “EC50 … (cFAP)” value in experiment [2] is reported as “did not show any binding”.

B4: NI-206.22F7: human-derived recombinant anti-FAP antibody; VH SEQ ID NO: 12, VL SEQ ID NO: 14 (antibody, listed as Homo sapiens, V domains shown)
VH: EVQLVETGGGVVQPGRSLRLSCAASGFSFSTHGMYWVRQPPGKGLEWVAVISYDGSDKKYADSVKGRFTISRDNSKNTVYLEMSSVRAEDTALYYCFCRRDAFDLWGQGTMVTVSS
VL: SYVLTQPPSVSVSPGQTARITCSGDALPKKYAYWYQQKSGQAPVLVIYEDTKRPSGIPERFSGSSSGTMATLTISGAQVEDEADYYCYSTDSSGNYWVFGGGTEVTVL
On to B4, for which the “EC50 to the directly coated FAP (FAP)” value in experiment [3] (direct ELISA, non-linear regression, GraphPad Prism) is reported as “did not show any binding”. In the experiment with captured FAP (sFAP) (capture ELISA, non-linear regression, GraphPad Prism), the “EC50 to the captured FAP (sFAP)” value is “did not show any binding”.

B5: NI-206.59B4: human-derived recombinant anti-FAP antibody; VH SEQ ID NO: 8, VL SEQ ID NO: 10 (antibody, listed as Homo sapiens, V domains shown)
VH: QVQLVQSGAEVKKPGASVKVSCKTSGYTFTDYYIHWVRQAPGQGLEWMGWINPNRGGTNYAQKFQGRVTMTRDTSIATAYMELSRLRSDDTAVYYCATASLKIAAVGTFDCWGQGTLVTVSS
VL: SYELTQPPSVSVSPGQTARITCSGDALSKQYAFWFQQKPGQAPILVIYQDTKRPSGIPGRFSGSSSGTTVTLTISGAQADDEADYYCQSADSSGTYVFGTGTKVTVL
Regarding B5, the “paratope-specific avidity (ΔMFI) under acidic conditions vs. at pH 7.4” value in experiment [1] was “increased”. For the same molecule, the “EC50 … (cFAP)” value in experiment [2] is on record as “did not show any binding”. The “binding to the directly coated FAP” value in experiment [3] (setting [4]) is “specifically, strongly and similarly bind”. Moreover, the “binding to the captured FAP” value with captured FAP (sFAP) (setting [4]) is “specifically, strongly and similarly bind”. Moreover, the “binding to BSA” value with BSA is reported as “does not bind”.
